What all share (experiment): cell-based or functional assay
In test [1] the target is human CD40 on the surface of B cells within PBMC from normal human subjects (human) (UniProt P25942).
For test [2], the target named is human CD40 antigen on the surface of B cells in human PBMC (human) (UniProt P25942).
The target in test [3] is human CD40 antigen expressed on the surface of cells (human) (UniProt P25942).
Another test addresses CD20 (human) (UniProt P11836).
Test [4] addresses human CD20 on the surface of lymphoma cell lines (Ramos or Daudi) (human) (UniProt P11836).
In test [5] the target is human CD40 on normal human B cells (PBMC or purified B cells) (human) (UniProt P25942).
Chain of human CD40 on normal human B cells (PBMC or purified B cells) (human) (P25942 20-277): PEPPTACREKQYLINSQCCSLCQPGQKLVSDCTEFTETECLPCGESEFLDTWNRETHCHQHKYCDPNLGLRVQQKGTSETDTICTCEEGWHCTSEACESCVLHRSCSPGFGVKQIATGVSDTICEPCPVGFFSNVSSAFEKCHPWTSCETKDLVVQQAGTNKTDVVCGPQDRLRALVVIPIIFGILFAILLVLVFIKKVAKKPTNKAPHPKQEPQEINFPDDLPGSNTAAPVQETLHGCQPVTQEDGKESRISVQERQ

Chain of human CD40 antigen on the surface of B cells in human PBMC (human) (P25942 20-277): as above
Chain of human CD40 on the surface of B cells within PBMC from normal human subjects (human) (P25942 20-277): as above
Chain of CD20 (human) (P11836 whole entry): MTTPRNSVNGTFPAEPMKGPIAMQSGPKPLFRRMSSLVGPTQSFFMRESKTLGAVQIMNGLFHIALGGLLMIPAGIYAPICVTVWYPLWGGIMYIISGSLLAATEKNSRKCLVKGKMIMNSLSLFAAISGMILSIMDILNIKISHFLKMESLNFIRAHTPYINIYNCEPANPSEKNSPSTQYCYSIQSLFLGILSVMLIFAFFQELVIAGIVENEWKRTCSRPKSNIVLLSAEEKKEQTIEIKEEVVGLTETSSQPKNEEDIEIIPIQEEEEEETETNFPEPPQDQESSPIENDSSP
Chain of human CD20 on the surface of lymphoma cell lines (Ramos or Daudi) (human) (P11836 whole entry): as above
Chain of CD40 ligand expressed on formaldehyde-fixed CHO cells (P29965 whole entry): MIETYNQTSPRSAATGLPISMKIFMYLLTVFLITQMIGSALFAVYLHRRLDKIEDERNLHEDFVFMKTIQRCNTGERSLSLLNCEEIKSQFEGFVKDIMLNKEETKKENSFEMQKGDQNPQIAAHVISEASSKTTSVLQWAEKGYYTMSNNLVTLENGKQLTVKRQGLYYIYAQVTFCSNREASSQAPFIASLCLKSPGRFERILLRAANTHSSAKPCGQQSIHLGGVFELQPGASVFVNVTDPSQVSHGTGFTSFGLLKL
Chain of CD40 ligand on formaldehyde-fixed CHO transfectant cells (P29965 whole entry): as above
Chain of human CD40 antigen expressed on the surface of cells (human) (P25942 20-277): as the sequence (P25942 20-277) above

Consider “CD40 ligand expressed on formaldehyde-fixed CHO cells (from UniProt P29965 1-261)”, for which, in test [1], the Average SI of PBMC; PBMC + CHO-CD40L, index (1) amounted to 11.9; the Average Stimulation index; PBMC + CHO-CD40L, S. index (1) was found to be 22; the PBMC + CHO-CD40L, CPM; Immoblize-004 worked out at 11700 CPM; the PBMC + CHO-CD40L, CPM; PBMC-012 was 6810 CPM. Moreover, in test [1], the PBMC + CHO-CD40L, CPM; PBMC-025 Donor#1 was 42300 CPM; the PBMC + CHO-CD40L, CPM; PBMC-025 Donor#2 came to 15000 CPM; the PBMC + CHO-CD40L, CPM; PBMC-026 Donor#1 came to 18300 CPM; the PBMC + CHO-CD40L, CPM; PBMC-026 Donor#2 was 18100 CPM. For the same substance, in test [1], the PBMC + CHO-CD40L, CPM; PBMC-027 Donor#1 was 13000 CPM; the PBMC + CHO-CD40L, CPM; PBMC-027 Donor#2 worked out at 11900 CPM; the PBMC + CHO-CD40L, CPM; PBMC-028 Donor#1 was found to be 22500 CPM; the PBMC + CHO-CD40L, CPM; PBMC-028 Donor#2 worked out at 54900 CPM. Moreover, in test [1], the PBMC + CHO-CD40L, CPM; PBMC-029 Donor#1 came out at 10100 CPM; the PBMC + CHO-CD40L, CPM; PBMC-029 Donor#2 is 23100 CPM; the PBMC + CHO-CD40L, CPM; PBMC-030 Donor#1 was found to be 57200 CPM; the PBMC + CHO-CD40L, CPM; PBMC-030 Donor#2 came to 53900 CPM. In test [1], the PBMC + CHO-CD40L, CPM; PBMC-032 Donor#1 is 15300 CPM; the PBMC + CHO-CD40L, S. index (1); Immoblize-004 came to 13.7; the PBMC + CHO-CD40L, S. index (1); PBMC-012 amounted to 30.3; the PBMC + CHO-CD40L, index (1); PBMC-025 Donor#1 is 10.4. In test [1], the PBMC + CHO-CD40L, index (1); PBMC-025 Donor#2 amounted to 6.63; the PBMC + CHO-CD40L, index (1); PBMC-026 Donor#1 amounted to 8.78; the PBMC + CHO-CD40L, index (1); PBMC-026 Donor#2 was 26.7; the PBMC + CHO-CD40L, index (1); PBMC-027 Donor#1 stood at 4.75. Further, in test [1], the PBMC + CHO-CD40L, index (1); PBMC-027 Donor#2 stood at 8.89; the PBMC + CHO-CD40L, index (1); PBMC-028 Donor#1 was 5.26; the PBMC + CHO-CD40L, index (1); PBMC-028 Donor#2 is 25.6; the PBMC + CHO-CD40L, index (1); PBMC-029 Donor#1 came out at 16.5. Moreover, in test [1], the PBMC + CHO-CD40L, index (1); PBMC-029 Donor#2 came to 2.99; the PBMC + CHO-CD40L, index (1); PBMC-030 Donor#1 worked out at 13.7; the PBMC + CHO-CD40L, index (1); PBMC-030 Donor#2 was determined as 16.2; the PBMC + CHO-CD40L, index (1); PBMC-032 Donor#1 turned out to be 8.45. In test [2], the Average SI of PBMC; PBMC + CHO-CD40L, index (1) amounted to 5.09; the PBMC proliferation (3H-thymidine), CPM of PBMC + CHO-CD40L; PBMC-010 turned out to be 5280 CPM; the PBMC proliferation (3H-thymidine), CPM of PBMC + CHO-CD40L; PBMC-011 Donor#1 came out at 8250 CPM; the PBMC proliferation (3H-thymidine), CPM of PBMC + CHO-CD40L; PBMC-011 Donor#2 was 11600 CPM. Also, in test [2], the PBMC proliferation (3H-thymidine), CPM of PBMC + CHO-CD40L; PBMC-011 Donor#3 came out at 7960 CPM; the PBMC proliferation (3H-thymidine), CPM of PBMC + CHO-CD40L; PBMC-011 Donor#4 stood at 14300 CPM; the PBMC proliferation (3H-thymidine), CPM of PBMC + CHO-CD40L; PBMC-014 worked out at 8790 CPM; the PBMC proliferation (3H-thymidine), CPM of PBMC + CHO-CD40L; PBMC-015 Donor#1 turned out to be 12900 CPM. Further, in test [2], the PBMC proliferation (3H-thymidine), CPM of PBMC + CHO-CD40L; PBMC-015 Donor#2 worked out at 19100 CPM; the PBMC proliferation (3H-thymidine), CPM of PBMC + CHO-CD40L; PBMC-015 Donor#3 amounted to 19800 CPM; the PBMC proliferation (3H-thymidine), CPM of PBMC + CHO-CD40L; PBMC-016 came to 15800 CPM; the index (1) = (PBMC + CHO-CD40L)/PBMC; PBMC-010 was 3.73. In test [2], the index (1) = (PBMC + CHO-CD40L)/PBMC; PBMC-011 Donor#1 is 3.86, the index (1) = (PBMC + CHO-CD40L)/PBMC; PBMC-011 Donor#2 stood at 4.87, the index (1) = (PBMC + CHO-CD40L)/PBMC; PBMC-011 Donor#3 came to 2.46 and the index (1) = (PBMC + CHO-CD40L)/PBMC; PBMC-011 Donor#4 worked out at 3.41. Also, in test [2], the index (1) = (PBMC + CHO-CD40L)/PBMC; PBMC-014 worked out at 3.74, the index (1) = (PBMC + CHO-CD40L)/PBMC; PBMC-015 Donor#1 was 3.94, the index (1) = (PBMC + CHO-CD40L)/PBMC; PBMC-015 Donor#2 was determined as 3.14 and the index (1) = (PBMC + CHO-CD40L)/PBMC; PBMC-015 Donor#3 was determined as 8. Besides, the index (1) = (PBMC + CHO-CD40L)/PBMC; PBMC-016 in test [2] is 13.8. In test [3], this substance showed an average stimulation index (SI), proliferation of total PBMC of 7.41.
“rituximab (Rituxan; IDEC-C2B8) (antibody)”: in the test with CD20 (human), the % lysis (ADCC-012 Calcein AM, huNK E:T 10, 1 ug/ml) was 66%; the % lysis - % lysis IgG1 (ADCC-006 Alarmor Blue, huNK E:T 2, 0.01 ug/ml) worked out at 33%; the % lysis - % lysis IgG1 (ADCC-013 51Cr, PBMC E:T 100, 0.001 ug/ml) came out at 0.35%. Further, in test [4], the % lysis (Ramos or Daudi; ADCC-012 Calcien AM, huNK E:T 10; 1 ug/ml) stood at 66%; the % lysis - % lysis IgG1 (Ramos or Daudi; ADCC-006 Alarmor Blue, huNK E:T 2; 0.01 ug/ml) is 33%; the % lysis - % lysis IgG1 (Ramos or Daudi; ADCC-013 51Cr, PBMC E:T 100; 0.001 ug/ml) was 0.35%.
Consider “CD40 ligand on formaldehyde-fixed CHO transfectant cells (from UniProt P29965 1-261)”, for which, in test [5], the Average Stimulation Index (SI), B cells + CHO-CD40L amounted to 145; the S. index (1) = CPM (B cells + CHO-CD40L)/CPM (B cells alone); B cell-004 Donor 1 is 7.49; the S. index (1) = CPM (B cells + CHO-CD40L)/CPM (B cells alone); B cell-004 Donor 2 turned out to be 336; the S. index (1) = CPM (B cells + CHO-CD40L)/CPM (B cells alone); B cell-005 Donor 3 was 92.

These data come from patent US20080254026A1.
